Measurements from patent publication US20200399712A1, “COMPOSITIONS AND METHODS FOR THE DIAGNOSIS AND DETECTION OF TUMORS AND CANCER PROGNOSIS” (priority 2018, published 2020).
Marks after values point to notes of the source that are not given here.

Legend:
[1] = tested on: HPV-16 genome; assay: qPCR sensitivity against HPV-16 copy number (known-copy HPV-16 DNA among 10 ng normal human DNA); conditions: for reaction under 30 copies of HPV-16 genome: among 10 ng normal DNA, triplicate qPCR; for number of reactions against 10 HPV-16 copies / number of reactions under 30 HPV-16 copies: samples tested 3 times, 10 ng DNA from healthy individual
Source text: All samples were run in triplicates.
To seek the most promising primer-probe set in the viewpoint of sensitivity, Applicants evaluated the sensitivity analysis for these candidate primer-probe sets. […] Therefore, the sensitivity of E6 (FIG. 3A) and E7 (FIG. 3B) was also 30 copies. […] The candidate primer-probe sets were the “Min-4” (FIG. 3C), “Min-5” (FIG. 3D), “Min-6” (FIG. 3E), “Max-10” (FIG. 3F), “E6-11” (FIG. 3G), “E6-13” (FIG. 3H), respectively.
In addition, Applicants performed sensitivity analysis to identify the most sensitive primer/probe set from among the candidate sets.
To validate the function of primer/probe sets, Applicants calculated the slope of delta Rn against cycle threshold for HPV-16 copy number detection from defined HPV copy number DNA derived from CaSki cell line.

[2] = tested on: HPV-16; assay: qPCR sensitivity against HPV-HNSCC tumor samples diluted among 10 ng normal human DNA; conditions: for sensitivity under 100 cells / sensitivity under single cells / sensitivity under 10 cells: 32 HPV-HNSCC tumor samples; for sensitivity under single cells: 6.6 pg DNA; for sensitivity under 10 cells: 66 pg DNA; for Sensitivity, 1 cell / Sensitivity, 3 cells / Sensitivity, 10 cells / Sensitivity, 30 cells / Sensitivity, 100 cells: tumor DNA dilution, fraction of 32 samples
Method: Quantitative real-time polymerase chain reaction (qRT-PCR) was used to examine the threshold in each experiment. qRT-PCR was performed using Quant Studio 6 Flex Real-Time PCR System (Thermo Fisher Scientific). All samples were run in triplicates. HPV-16 viral amplicon copy number estimations were developed using the CaSki cell line. After amplification of the amplicon by PCR, DNA concentration was calculated by weight NanoDrop®, then converted to DNA copy number by calculation based on the molecular weight of the double stranded amplicon. […] In the other 32 HPV-HNSCC cohort, Applicants diluted the tumor sample to 990 pg, 198 pg, 99 pg, 39.6 pg, 7.9 pg, 3.2 pg, and 1.6 pg of amount tumor weight, (correspond to 150, 30, 15, 6, 1.2, 0.6, and 0.3 cells: assumption that 1 tumor cell have 6.6 pg DNA (=3*10^9 (human DNA genome bp)*2 (diploid)*1.67*10^(−24) g (weight/Dalton))) combined with 10 ng normal leukocyte human DNA and compare the threshold of each primer-probe sets.
In this regard, Applicants investigated the other 32 HPV-HNSCC tumor samples. From the assumption that 1 cell tumor DNA contain 6.6 pg DNA, Applicants made the dilution series by DNA derived from normal lymphocyte as described and decide the threshold for each primer-probe set.
Furthermore, to determine whether these designed primer/probe sets also have a high sensitivity in a separate cohort, Applicants performed PCR in a validation cohort of 32 additional primary tumor samples with validated presence of HPV-16. Applicants prepared serial of dilutions of tumor DNA in normal lymphocyte DNA from non-cancer individuals and determined the threshold for each primer/probe set and defined amplification thresholds expressed in number of tumor cells for each sample (Table 5).

B1: BR E1-4: HPV-16 E1 region primer/probe set, SEQ ID NO: 37-39 (nucleic acid)
DNA 1: ATGCACAATTGGCAGACACTA
DNA 2: ACAATCCTTTACAATTTTTGCCTGT
DNA 3: TAATGCAAGTGCCTTTCTAAAAAGT
modifications: chemistry not given here
reaction under 30 copies of HPV-16 genome [1]: consistently amplified | reaction under 30 copies of HPV-16 genome ([1]; listed as Min-4): react consistently | number of reactions against 10 HPV-16 copies [1]: 2 reactions | number of reactions under 30 HPV-16 copies [1]: 3 reactions | sensitivity under 100 cells [2]: 93.8% | sensitivity under single cells [2]: 21.9% | sensitivity under 10 cells [2]: 78.1% | Threshold of tumor cell numbers for HPV-16 detection ([2]; Sample # 1): 150.0 tumor cells | Threshold of tumor cell numbers for HPV-16 detection ([2]; Sample # 2): 150.0 tumor cells | Threshold of tumor cell numbers for HPV-16 detection ([2]; Sample # 3): 1.2 tumor cells | Threshold of tumor cell numbers for HPV-16 detection ([2]; Sample # 4): 6.0 tumor cells | Threshold of tumor cell numbers for HPV-16 detection ([2]; Sample # 5): 30.0 tumor cells | Threshold of tumor cell numbers for HPV-16 detection ([2]; Sample # 6): 30.0 tumor cells | Threshold of tumor cell numbers for HPV-16 detection ([2]; Sample # 7): 30.0 tumor cells | Threshold of tumor cell numbers for HPV-16 detection ([2]; Sample # 8): 50.0 tumor cells | Threshold of tumor cell numbers for HPV-16 detection ([2]; Sample # 9): 1.2 tumor cells | Threshold of tumor cell numbers for HPV-16 detection ([2]; Sample # 10): 1.2 tumor cells | Threshold of tumor cell numbers for HPV-16 detection ([2]; Sample # 11): 1.2 tumor cells | Threshold of tumor cell numbers for HPV-16 detection ([2]; Sample # 12): 3.0 tumor cells | Threshold of tumor cell numbers for HPV-16 detection ([2]; Sample # 13): 6.0 tumor cells | Threshold of tumor cell numbers for HPV-16 detection ([2]; Sample # 14): 6.0 tumor cells | Threshold of tumor cell numbers for HPV-16 detection ([2]; Sample # 15): 6.0 tumor cells | Threshold of tumor cell numbers for HPV-16 detection ([2]; Sample # 16): 6.0 tumor cells | Threshold of tumor cell numbers for HPV-16 detection ([2]; Sample # 17): 6.0 tumor cells | Threshold of tumor cell numbers for HPV-16 detection ([2]; Sample # 18): 1.2 tumor cells | Threshold of tumor cell numbers for HPV-16 detection ([2]; Sample # 19): 0.3 tumor cells | Threshold of tumor cell numbers for HPV-16 detection ([2]; Sample # 20): 1.2 tumor cells | Threshold of tumor cell numbers for HPV-16 detection ([2]; Sample # 21): 0.6 tumor cells | Threshold of tumor cell numbers for HPV-16 detection ([2]; Sample # 22): 0.3 tumor cells | Threshold of tumor cell numbers for HPV-16 detection ([2]; Sample # 23): 1.2 tumor cells | Threshold of tumor cell numbers for HPV-16 detection ([2]; Sample # 24): 0.6 tumor cells | Threshold of tumor cell numbers for HPV-16 detection ([2]; Sample # 25): 1.2 tumor cells | Threshold of tumor cell numbers for HPV-16 detection ([2]; Sample # 26): 0.6 tumor cells | Threshold of tumor cell numbers for HPV-16 detection ([2]; Sample # 27): 0.6 tumor cells | Threshold of tumor cell numbers for HPV-16 detection ([2]; Sample # 28): 1.0 tumor cells | Threshold of tumor cell numbers for HPV-16 detection ([2]; Sample # 29): 1.0 tumor cells | Threshold of tumor cell numbers for HPV-16 detection ([2]; Sample # 30): 30.0 tumor cells | Threshold of tumor cell numbers for HPV-16 detection ([2]; Sample # 31): 0.6 tumor cells | Threshold of tumor cell numbers for HPV-16 detection ([2]; Sample # 32): 9.0 tumor cells | Sensitivity, 1 cell [2]: 0.219 | Sensitivity, 3 cells [2]: 0.531* | Sensitivity, 10 cells [2]: 0.781* | Sensitivity, 30 cells [2]: 0.875 | Sensitivity, 100 cells [2]: 0.938

B2: BR E1-6: HPV-16 E1 region primer/probe set, SEQ ID NO: 43-45 (nucleic acid)
DNA 1: ATGCACAATTGGCAGACACTAA
DNA 2: AATCCTTTACAATTTTTGCCTGTGA
DNA 3: AGTAATGCAAGTGCCTTTCTAAAAAGTA
modifications: chemistry not given here
reaction under 30 copies of HPV-16 genome [1]: consistently amplified | reaction under 30 copies of HPV-16 genome ([1]; listed as Min-6): react consistently | number of reactions against 10 HPV-16 copies [1]: 2 reactions | number of reactions under 30 HPV-16 copies [1]: 3 reactions | sensitivity under 100 cells [2]: 87.5% | sensitivity under single cells [2]: 15.6% | sensitivity under 10 cells [2]: 62.5% | Threshold of tumor cell numbers for HPV-16 detection ([2]; Sample # 1): 150.0 tumor cells | Threshold of tumor cell numbers for HPV-16 detection ([2]; Sample # 2): 150.0 tumor cells | Threshold of tumor cell numbers for HPV-16 detection ([2]; Sample # 3): 30.0 tumor cells | Threshold of tumor cell numbers for HPV-16 detection ([2]; Sample # 4): 30.0 tumor cells | Threshold of tumor cell numbers for HPV-16 detection ([2]; Sample # 5): 30.0 tumor cells | Threshold of tumor cell numbers for HPV-16 detection ([2]; Sample # 6): 50.0 tumor cells | Threshold of tumor cell numbers for HPV-16 detection ([2]; Sample # 7): 150.0 tumor cells | Threshold of tumor cell numbers for HPV-16 detection ([2]; Sample # 8): 15.0 tumor cells | Threshold of tumor cell numbers for HPV-16 detection ([2]; Sample # 9): 30.0 tumor cells | Threshold of tumor cell numbers for HPV-16 detection ([2]; Sample # 10): 6.0 tumor cells | Threshold of tumor cell numbers for HPV-16 detection ([2]; Sample # 11): 6.0 tumor cells | Threshold of tumor cell numbers for HPV-16 detection ([2]; Sample # 12): 30.0 tumor cells | Threshold of tumor cell numbers for HPV-16 detection ([2]; Sample # 13): 6.0 tumor cells | Threshold of tumor cell numbers for HPV-16 detection ([2]; Sample # 14): 6.0 tumor cells | Threshold of tumor cell numbers for HPV-16 detection ([2]; Sample # 15): 6.0 tumor cells | Threshold of tumor cell numbers for HPV-16 detection ([2]; Sample # 16): 30.0 tumor cells | Threshold of tumor cell numbers for HPV-16 detection ([2]; Sample # 17): 6.0 tumor cells | Threshold of tumor cell numbers for HPV-16 detection ([2]; Sample # 18): 1.2 tumor cells | Threshold of tumor cell numbers for HPV-16 detection ([2]; Sample # 19): 1.2 tumor cells | Threshold of tumor cell numbers for HPV-16 detection ([2]; Sample # 20): 6.0 tumor cells | Threshold of tumor cell numbers for HPV-16 detection ([2]; Sample # 21): 1.2 tumor cells | Threshold of tumor cell numbers for HPV-16 detection ([2]; Sample # 22): 0.3 tumor cells | Threshold of tumor cell numbers for HPV-16 detection ([2]; Sample # 23): 1.2 tumor cells | Threshold of tumor cell numbers for HPV-16 detection ([2]; Sample # 24): 1.2 tumor cells | Threshold of tumor cell numbers for HPV-16 detection ([2]; Sample # 25): 1.2 tumor cells | Threshold of tumor cell numbers for HPV-16 detection ([2]; Sample # 26): 0.3 tumor cells | Threshold of tumor cell numbers for HPV-16 detection ([2]; Sample # 27): 0.6 tumor cells | Threshold of tumor cell numbers for HPV-16 detection ([2]; Sample # 28): 0.6 tumor cells | Threshold of tumor cell numbers for HPV-16 detection ([2]; Sample # 29): 3.0 tumor cells | Threshold of tumor cell numbers for HPV-16 detection ([2]; Sample # 30): 150.0 tumor cells | Threshold of tumor cell numbers for HPV-16 detection ([2]; Sample # 31): 0.6 tumor cells | Threshold of tumor cell numbers for HPV-16 detection ([2]; Sample # 32): 9.0 tumor cells | Sensitivity, 1 cell [2]: 0.156 | Sensitivity, 3 cells [2]: 0.344 | Sensitivity, 10 cells [2]: 0.625 | Sensitivity, 30 cells [2]: 0.844 | Sensitivity, 100 cells [2]: 0.875
